In US20100166741A1 (Genentech, published 2010):
Changes are numbered by the printed parent chain.

T1: human FcγRIIb extracellular domain, His-tagged GST fusion (human, UniProt P31994 43-217)
T1 construct: extracellular domain; also called hFcgRIIb; CD32B; not shown: C-terminal Gly/His6/GST tag
T1 sequence (looked up): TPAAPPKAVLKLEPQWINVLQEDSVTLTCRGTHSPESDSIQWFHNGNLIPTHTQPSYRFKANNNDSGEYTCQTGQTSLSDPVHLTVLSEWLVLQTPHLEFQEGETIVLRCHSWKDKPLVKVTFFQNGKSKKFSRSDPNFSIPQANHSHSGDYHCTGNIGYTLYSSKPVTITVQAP

T2: mouse FcγRI extracellular domain, His-tagged GST fusion (mouse, UniProt P26151 25-297)
T2 construct: extracellular domain; also called Mouse I; mFcγRI; not shown: His tag and GST
T2 sequence (looked up): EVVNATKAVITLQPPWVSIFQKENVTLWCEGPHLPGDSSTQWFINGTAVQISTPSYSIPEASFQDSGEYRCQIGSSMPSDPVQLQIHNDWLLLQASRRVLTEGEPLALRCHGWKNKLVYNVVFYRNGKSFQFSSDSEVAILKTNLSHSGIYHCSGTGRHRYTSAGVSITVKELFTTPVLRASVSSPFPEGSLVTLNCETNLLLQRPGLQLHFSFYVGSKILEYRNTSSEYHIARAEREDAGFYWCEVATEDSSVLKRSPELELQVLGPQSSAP

T3: mouse FcγRII extracellular domain, His-tagged GST fusion (mouse, UniProt P08101 30-210)
T3 construct: extracellular domain; also called Mouse II; not shown: His tag and GST
T3 sequence (looked up): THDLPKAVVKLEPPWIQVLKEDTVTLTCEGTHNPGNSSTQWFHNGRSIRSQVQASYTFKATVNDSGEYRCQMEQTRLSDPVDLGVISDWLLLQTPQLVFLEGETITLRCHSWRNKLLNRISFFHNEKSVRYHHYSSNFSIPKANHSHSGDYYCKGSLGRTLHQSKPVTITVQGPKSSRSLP

T4: mouse FcγRIII extracellular domain, His-tagged GST fusion (mouse, UniProt P08508 31-215)
T4 construct: extracellular domain; also called Mouse III; not shown: His tag and GST
T4 sequence (looked up): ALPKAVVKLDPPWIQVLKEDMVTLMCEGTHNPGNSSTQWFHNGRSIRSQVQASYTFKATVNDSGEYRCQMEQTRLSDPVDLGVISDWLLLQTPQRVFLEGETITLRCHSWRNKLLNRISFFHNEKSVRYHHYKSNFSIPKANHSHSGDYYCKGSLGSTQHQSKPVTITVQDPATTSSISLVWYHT

T5: human FcγRIIa extracellular domain, His-tagged GST fusion (human, UniProt P12318 34-217)
T5 construct: extracellular domain; also called hFcgRIIa; CD32A; not shown: C-terminal Gly/His6/GST tag
T5 sequence (looked up): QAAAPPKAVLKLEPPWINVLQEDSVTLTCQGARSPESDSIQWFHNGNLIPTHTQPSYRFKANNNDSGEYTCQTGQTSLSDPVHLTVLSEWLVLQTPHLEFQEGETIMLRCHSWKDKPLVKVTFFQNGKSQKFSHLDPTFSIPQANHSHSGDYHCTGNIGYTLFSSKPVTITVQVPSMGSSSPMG

B1: Hu9.1RF IgG1 (antibody)
heavy: not shown
light: DIQMTQSPSSLSASVGDRVTITCKSSQSLLYSSNQNNYLAWYQQKPGKAPKLLIYWASTRESGVPSRFSGSGSGTDFTLTISSLQPEDFATYYCQQYYTYPYTFGQGTKVEIKRTVAAPSVFIFPPSDEQLKSGTASVVCLLNNFYPREAKVQWKVDNALQSGNSQESVTEQDSKDSTYSLSSTLTLSKADYEKHKVYACEVTHQGLSSPVTKSFNRGEC
notes: Humanized IgG1 with normal (fucosylated) glycans; also called WT; WT(9.1RF)
B2: afucosylated Hu9.1RF IgG1 (antibody)
heavy: not shown
light: B1 light
modifications: N-linked Fc carbohydrate lacks fucose (made in a cell line lacking fucosyltransferase; 100% afucosylated by paragraph 557)
notes: also called AF Hu9.1RF IgG1; Hu9.1RF IgG1 AF
B3: 9.1(10) (antibody, human IgG1, kappa)
heavy: EVQLVESGGGLVQPGGSLRLSCAASGFTVTAYYMSWVRQAPGKGLEWVGFIRDKANGYTTEYNPSVKGRFTISRDTSKNTFYLQMNSLRAEDTAVYYCAQVRRALDYWGQGTLVTVSSASTKGPSVFPLAPSSKSTSGGTAALGCLVKDYFPEPVTVSWNSGALTSGVHTFPAVLQSSGLYSLSSVVTVPSSSLGTQTYICNVNHKPSNTKVDKKVEPKSCDKTHTCPPCPAPELLGGPDVFLFPPKPKDTLMISRTPEVTCVVVDVSDEDPEVKFNWYVDGVEVHNAKTKPREEQYNATYRVVSVLTVLHQDWLNGKEYKCKVSNAALPAPEEKTISKAKGQPREPQVYTLPPSREEMTKNQVSLTCLVKGFYPSDIAVEWESNGQPENNYKTTPPVLDSDGSFFLYSKLTVDKSRWQQGNVFSCSVMHEALHNHYTQKSLSLSPG
light: B1 light
notes: Fc variant of 9.1RF, expressed in 293 cells; also called 9.1RF 239D/268D/298A/326A/332E
B4: 9.1(9) (antibody, human IgG1, kappa)
heavy: B3 heavy with A327K
light: B1 light
notes: Fc variant of 9.1RF, expressed in 293 cells; also called 9.1RF 239D/268D/298A/332E
B5: V3-1m (antibody, mouse IgG2a, V domains shown)
VH: EVQLVESGGGLVQPGGSLRLSCAASGFTISSNSIHWVRQAPGKGLEWVAWITPSDGNTDYADSVKGRFTISADTSKNTAYLQMNSLRAEDTAVYYCARRVCYNRLGVCAGGMDYWGQGTLVTVSS
VL: DIQMTQSPSSLSASVGDRVTITCRASQDVSTAVAWYQQKPGKAPKLLIYSASFLYSGVPSRFSGSGSGTDFTLTISSLQPEDFATYYCQQSRITPPTFGQGTKVEIKR
notes: also called mV3-1
B6: V3-1h (antibody, human IgG1, V domains shown)
VH: B5 VH
VL: B5 VL

Key:
[1] = biological target: T1, human FcγRIIb extracellular domain, …; test: ELISA, captured FcγR-GST;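 also: antibody variants applied as dilution series to receptor wells, with retained antibody read out via an HRP-linked goat F(ab′)2 fragment recognizing human Fab′2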
[2] = biological target: T2, mouse FcγRI extracellular domain, …; test: ELISA, captured FcγR-GST;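 also: antibody variants applied as dilution series to receptor wells, with retained antibody read out via an HRP-linked goat F(ab′)2 fragment recognizing human Fab′2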
[3] = biological target: T3, mouse FcγRII extracellular domain, …; test: ELISA, captured FcγR-GST;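 also: antibody variants applied as dilution series to receptor wells, with retained antibody read out via an HRP-linked goat F(ab′)2 fragment recognizing human Fab′2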
[4] = biological target: T4, mouse FcγRIII extracellular domain, …; test: ELISA, captured FcγR-GST;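 also: antibody variants applied as dilution series to receptor wells, with retained antibody read out via an HRP-linked goat F(ab′)2 fragment recognizing human Fab′2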
[5] = biological target: T6, human FcγRI extracellular domain, His-tagged GST fusion (human, UniProt P12314 16-292); test: ELISA, captured FcγR-GST
T6 construct: extracellular domain; also called hFcgRI; FcγRIA; not shown: C-terminal Gly/His6/GST tag

[6] = biological target: T5, human FcγRIIa extracellular domain, …; test: ELISA, captured FcγR-GST
[7] = biological target: T6, human FcγRI extracellular domain, …; test: ELISA, FcγR-His-GST captured by anti-GST
[8] = biological target: T7, human BR3 on the cell surface (BJAB cells; primary human B cells) (human, UniProt Q96RJ3 1-184); test: competition with 25 nM FLAG-BAFF on BJAB cells
T7 construct: whole, on cells; also called BAFF-R; cell surface BR3

[9] = biological target: T7, human BR3 on the cell surface (BJAB …); test: direct binding to BJAB cells, anti-human IgG Fc-HRP
[10] = biological target: T1, human FcγRIIb extracellular domain, …; test: ELISA, FcγR-His-GST captured by anti-GST, complexed IgG
[11] = biological target: T5, human FcγRIIa extracellular domain, …; test: as above
[12] = biological target: T8, human BR3 extracellular domain (human, UniProt Q96RJ3 1-78); test: BIAcore, BR3 ECD on chip, IgG in solution, 1:1 Langmuir model
T8 construct: extracellular domain; also called BR3 ECD; Br3 ECD WT

[13] = biological target: T8, human BR3 extracellular domain; test: BIAcore, IgG on chip, BR3 ECD in solution, 1:1 Langmuir model
[14] = biological target: T8, human BR3 extracellular domain; test: BIAcore, BR3 ECD on chip, IgG in solution, bivalent analyte model
[15] = biological target: T9, human FcγRIII (CD16) on NK cells (human, UniProt P08637 17-254); test: cell-based or functional assay
[16] = biological target: T9, human FcγRIII (CD16) on NK cells; test: cell-based or functional assay; remark: listed apart in the source
[17] = biological target: T1, human FcγRIIb extracellular domain, …; test: Fcγ receptor ELISA; bar = fold increase in binding over Herceptin, log axis 0.1-1000
[18] = biological target: T6, human FcγRI extracellular domain, …; test: as above
[19] = biological target: T7, human BR3 on the cell surface (BJAB …); test: BJAB binding assay

Binder	IC50 [8] [nM]	EC50 [9] [nM]	Kd [12] [nM]	koff [12] [s⁻¹]	kon [12] [M⁻¹ s⁻¹]	Kd [13] [nM]	koff [13] [s⁻¹]	kon [13] [M⁻¹ s⁻¹]	Kd [14] [nM]	koff [14] [s⁻¹]	kon [14] [M⁻¹ s⁻¹]	ADCC on BJAB cells with NK cells, relative fold increase compared to 9.1RF [16] [fold]	binding result [17]	binding result [18]	binding result [19]	also measured
B1	8.8	0.92	0.03	5.21e-05	1.99e+06	0.25	0.000253	995000	0.52	0.000339	658000					fold improvement in binding vs Herceptin (EC50herceptin/EC50sample) [1]: 0.7 fold; fold improvement in binding vs Herceptin (EC50herceptin/EC50sample) [2]: 1.2 fold; fold improvement in binding vs Herceptin (EC50herceptin/EC50sample) [3]: 0.7 fold; fold improvement in binding vs Herceptin (EC50herceptin/EC50sample) [4]: 0.8 fold; fold improvement in binding vs Herceptin (EC50herceptin/EC50sample) [5]: 1 fold; fold improvement in binding vs Herceptin (EC50herceptin/EC50sample) [6]: 2.3 fold; binding relative to 9.1-RF [7]: 1; binding relative to 9.1-RF [10]: 1; binding relative to 9.1-RF [11]: 1
B2	3.6	0.49	0.04	5.41e-05	1.49e+06	0.23	0.000199	852000	0.28	0.000149	532000					ADCC EC50 on BJAB cells with NK cells, improvement over 2% afucosylated Hu9.1RF IgG1 [15]: > 6 fold; ADCC percent cytotoxicity on BJAB cells with NK cells, increase over 2% afucosylated Hu9.1RF IgG1 [15]: > 3 fold
B3												10	binds	binds		
B4												10	binds	binds		
B5															binds	
B6															binds	
